Laboratory results taken from paper PMC10364586 (Protein Science : A Publication of the Protein Society, 2023).
Several values for one entry are separate records, joined by “and”; a condition that tells them apart may be missing. Equal entries are not always repeated.

Tests used:
[1] = molecular target: T1, PADI4 (peptidyl-arginine deiminase 4), recombinant, dimeric (human, UniProt Q9UM07 1-663); experiment: ITC
[2] = molecular target: T1, PADI4 (peptidyl-arginine deiminase 4), …; experiment: other fluorescence titration

T1 sequence (Q9UM07 whole entry): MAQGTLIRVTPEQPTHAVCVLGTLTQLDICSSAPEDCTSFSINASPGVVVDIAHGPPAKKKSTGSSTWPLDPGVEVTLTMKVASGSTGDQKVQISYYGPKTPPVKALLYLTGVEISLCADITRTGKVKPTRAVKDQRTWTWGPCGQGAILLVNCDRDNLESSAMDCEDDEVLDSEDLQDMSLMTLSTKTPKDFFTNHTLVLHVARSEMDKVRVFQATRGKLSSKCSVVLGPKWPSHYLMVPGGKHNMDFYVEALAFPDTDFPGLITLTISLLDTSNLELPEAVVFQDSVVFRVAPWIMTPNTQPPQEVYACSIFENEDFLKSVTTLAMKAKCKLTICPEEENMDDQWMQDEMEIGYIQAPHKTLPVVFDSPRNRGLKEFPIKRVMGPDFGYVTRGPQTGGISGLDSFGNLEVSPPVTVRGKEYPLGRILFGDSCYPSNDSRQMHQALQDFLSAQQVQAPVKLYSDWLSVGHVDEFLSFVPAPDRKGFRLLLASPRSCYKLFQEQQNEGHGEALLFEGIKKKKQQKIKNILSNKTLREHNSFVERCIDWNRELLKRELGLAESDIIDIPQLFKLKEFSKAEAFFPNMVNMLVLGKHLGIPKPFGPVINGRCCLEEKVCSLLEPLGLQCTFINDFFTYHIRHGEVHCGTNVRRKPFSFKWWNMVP

Kd [1]: 1 ± 0.2 µM
Kd [2]: 5 µM and ~6 µM
B1: His-tagged N-MDM2 (N-terminal region of MDM2, residues 6-125 of the intact protein) (domain or fragment, UniProt Q00987 6-125, looked up)
chain: MSVPTDGAVTTSQIPASEQETLVRPKPLLLKLLKSVGAQKDTYTMKEVLFYLGQYIMTKRLYDEKQQHIVYCSNDLLGDLFGVPSFSVKEHRKIYTMIYRNLVVVNQQESSDSGTSVSEN
modifications: 15N-labelled in the NMR experiment only
